Legend:
[1] = molecular target: Myc-GST融合蛋白 (Myc-GST fusion protein); test: indirect ELISA, Myc-GST coated at 5 μg/mL, HRP anti-His secondary antibody, heat test at 80℃
[2] = molecular target: Myc-GST融合蛋白 (Myc-GST fusion protein); test: indirect ELISA, Myc-GST coated at 5 μg/mL, HRP anti-His secondary antibody, heat test at 70℃
[3] = molecular target: Myc-GST融合蛋白 (Myc-GST fusion protein); test: indirect ELISA, Myc-GST coated at 5 μg/mL, HRP anti-His secondary antibody, heat test at 90℃

- OD450 [1]: 1.2 OD450
- OD450 [2]: 1.4 OD450
- OD450 [3]: 1 OD450
B1: 抗c-Myc标签单域重链抗体 (anti-c-Myc tag single-domain heavy-chain antibody) (VHH, not shown: small tags and cut ends)
VHH: QLQLVESGGGLVRPGESLRLSCDASSSEPPLLAYVVSWFRQVPGKEREGISCSSSSGVRNSYADSVKGRFTISRDNHKNTVYLQMNSLQAEDTAIYYCAAARLGARGCDFREDLQGTWGQGTQVTVSS

From patent CN107042099A
